Test results as given in patent US20220324955A1.

Target: human neonatal Fc-receptor (FcRn) (human) (UniProt P55899)
Assay: FcRn affinity column chromatography

Chain of human neonatal Fc-receptor (FcRn) (human) (P55899 24-297 limits assumed, chain 1 of 2): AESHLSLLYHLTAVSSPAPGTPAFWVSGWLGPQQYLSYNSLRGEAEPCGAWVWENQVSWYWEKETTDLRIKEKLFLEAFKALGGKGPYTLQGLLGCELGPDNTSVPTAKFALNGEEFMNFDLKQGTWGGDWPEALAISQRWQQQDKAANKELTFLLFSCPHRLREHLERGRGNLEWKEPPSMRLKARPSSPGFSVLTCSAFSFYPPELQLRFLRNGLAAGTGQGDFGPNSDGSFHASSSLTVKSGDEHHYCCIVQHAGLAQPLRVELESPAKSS
Chain of human neonatal Fc-receptor (FcRn) (human) (P61769 21-119 limits assumed, chain 2 of 2, further chain): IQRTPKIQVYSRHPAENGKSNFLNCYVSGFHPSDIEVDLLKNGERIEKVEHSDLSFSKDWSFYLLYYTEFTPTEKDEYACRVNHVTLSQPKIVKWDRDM

anti-HER2 antibody, symmetric mutation Q311H
retention time: 46.3 min

anti-HER2 antibody, symmetric mutation K288E
retention time: 45.2 min

anti-HER2 antibody, symmetric mutation L309H
retention time: 45.5 min

IgG1 Fc-region with L234A/L235A/P329G and symmetric Y436A
FcRn-affinity column retention time: 41.3 min

anti-HER2 antibody, symmetric mutation K290H
retention time: 46.2 min

anti-HER2 antibody, symmetric mutation N434H
retention time: 52 min

anti-HER2 antibody, symmetric mutation K317H
retention time: 46.3 min

anti-HER2 antibody, symmetric mutation R255D
retention time: 41.4 min

anti-HER2 antibody, symmetric mutation E430H
retention time: 46.4 min

anti-HER2 antibody, symmetric mutation T256H
retention time: 46 min
